From patent publication US11708423B2, “Chimeric engulfment receptor molecules and methods of use” (CERO THERAPEUTICS, INC., priority 2017, dated 2023)

Legend:
[1] = system: SCC152 cells; test: Phagocytic activity of tandem expression cassette transduced CD8+ T cells; type: cell-based, human
Experimental: Phagocytic activity of tandem expression cassette transduced CD8+ T cells was detected by co-culturing tandem expression cassette transduced CD8+ T cells with SCC152 cells for 6 hours at a 1:1 ratio. Phagocytic events were visualized and quantified using KEYENCE BZ-X710 fluorescence microscope, 20X objective and hybrid capture software.

[2] = Engulfment of phosphatidylserine coated latex beads; type: cell-based
[3] = system: SCC152 cells; test: Cytokine response of tandem cassette transduced CD8+ T cells; type: cell-based, human; settings: CD8+ T cells co-cultured with SCC152 cells
[4] = system: SCC152 cells
Experimental: Peripheral blood was collected by venipuncture from a human donor, and human peripheral blood mononuclear cells (PBMCs) were isolated by density gradient centrifugation using lymphocyte separation media. CD8+ T cells were enriched from PBMCs using a commercially available isolation kit and activated with anti-CD3 and anti-CD28 in Complete Cell Growth Media. 50 μl of viral vector expressing the CER-HPV16 E7 TCR combination were diluted in 0.5 ml Complete Cell Growth Media and added to the CD8+ T cells. The transduced T cells were then centrifuged at 270×g rpm for 1 hour in a 32° C. pre-warmed centrifuge. The T cells were incubated for 24 hours at 37° C. T cells were expanded for another 72 hours in Complete Cell Growth Media, de-beaded, and allowed to expand x 5 days prior to being utilized for functional assays.
Cytotoxic activity of tandem expression cassette transduced CD8+ T cells was detected using a caspase 3/7 apoptosis reagent (IncuCyte®) that couples the activated caspase 3/7 recognition motif with a red reagent that fluoresces upon cleavage. The fluorescent signal was measured using fluorescent microscopy. […] The caspase 3/7 apoptosis reagent was added to the co-culture, and cytotoxic activity was measured over time by measuring fluorescence (see, FIG. 40). […]

B1: CER21−HPV16 E7 TCR: tandem expression cassette: CER21, T2A peptide, HPV16 E7 specific TCR; SEQ ID NO:166 (protein)
chain: MSKGLLLLWLVTELWWLYLTPAASEDTIIGFLGQPVTLPCHYLSWSQSRNSMCWGKGSCPNSKCNAELLRTDGTRIISRKSTKYTLLGKVQFGEVSLTISNTNRGDSGVYCCRIEVPGWFNDVKKNVRLELRRATTTKKPTTTTRPTTTPYVTTTTPELLPTTVMTTSVLPTTTPPQTLATTAFSTAVTTCPSTTPGSFSQETTKGSAFTTESETLPASNHSQRSMMTISTDIAVLRPTGSNPGILPSTSQLTTQKTTLTTSESLQKTTKSHQINSRQTILIIACCVGFVLMVLLFLAFLHHLFYWDVWFIYNVCLAKVKGYRSLSTSQTFYDAYISYDTKDASVTDWVINELRYHLEESRDKNVLLCLEERDWDPGLAIIDNLMQSINQSKKTVFVLTKKYAKSWNFKTAFYLALQRLMDENMDVIIFILLEPVLQHSQYLRLRQRICKSSILQWPDNPKAEGLFWQTLRNVVLTENDSRYNNMYVDSIKQYLEGGGEGRGSLLTCGDVEENPGPMAPGLLCWALLCLLGAGLVDAGVTQSPTHLIKTRGQQVTLRCSPKSGHDTVSWYQQALGQGPQFIFQYYEEEERQRGNFPDRFSGHQFPNYSSELNVNALLLGDSALYLCASSLGWRGGRYNEQFFGPGTRLTVLEDLRNVTPPKVSLFEPSKAEIANKQKATLVCLARGFFPDHVELSWWVNGKEVHSGVCTDPQAYKESNYSYCLSSRLRVSATFWHNPRNHFRCQVQFHGLSEEDKWPEGSPKPVTQNISAEAWGRADCGITSASYQQGVLSATILYEILLGKATLYAVLVSTLVVMAMVKRKNSRAKRSGSGATNFSLLKQAGDVEENPGPMWGVFLLYVSMKMGGTTGQNIDQPTEMTATEGAIVQINCTYQTSGFNGLFWYQQHAGEAPTFLSYNVLDGLEEKGRFSSFLSRSKGYSYLLLKELQMKDSASYLCASVDGNNRLAFGKGNQVVVIPNIQNPEPAVYQLKDPRSQDSTLCLFTDFDSQINVPKTMESGTFITDKCVLDMKAMDSKSNGAIAWSNQTSFTCQDIFKETNATYPSSDVPCDATLTEKSFETDMNLNFQNLLVIVLRILLLKVAGFNLLMTLRLWSS
modifications: CER21_T2A_HPV16_E7_TCR tandem cassette
phagocytosis of SCC152 cells ([1]; CD8+ T cells, 6 hours, 1:1 ratio): capable of phagocytosing SCC152 cells
dependence of engulfment of SCC152 cells on Racl ([1]; Racl inhibitor NSC23766 (50 μM), data not shown): Racl-dependent manner
incubation time after which phosphatidylserine coated beads could be visualized inside the T cells [2]: about 30 minutes
engulfment of phosphatidylserine coated beads ([2]; CD8+ T cells, data not shown): engulfed streptavidin coated latex beads
antigen specific effector function (IFNγ response) [3]: exhibit antigen specific effector function as measured by IFNγ response
cytotoxic activity toward SCC152 cells (caspase 3/7) ([4]; CD8+ T cells, 1:1 ratio): exhibit cytotoxic activity toward SCC152 cells
cytotoxic response relative to CD8+ T cells comprising HPV16 E7 TCR alone ([4]; by 6 hours): exponentially higher
